This is an account of results in patent US20150322160A1 (Bayer, published 2015).

B1: MF-J-SPDP-DM4 (antibody, V domains shown)
VH: QVELVQSGAEVKKPGESLKISCKGSGYSFTNYWIGWVRQMPGKGLEWMGVIMPSDSYTRYSPSFQGQVTISADKSISTAYLQWSSLKASDTAMYYCARYGHGMYGGALDVWGQGTLVTVSS
VL: DIVLTQSPATLSLSPGERATLSCRASQSVRSSRLAWYQQKPGQAPRLLIYGASKRATGVPARFSGSGSGTDFTLTISSLEPEDFATYYCQQYYDFPPTFGQGTKVEIKR
modifications: DM4 maytansinoid conjugated via SPDB (printed SPDP in Table 2) linker; DM4/Ab 2.8; attachment residues not stated
B2: MOR06640-SPDP-DM4 (antibody, V domains shown)
VH: QVQLVQSGAEVKKPGESLKISCKGSGYSFTNYWIGWVRQMPGKGLEWMGVIMPSDSYTRYSPSFQGQVTISADKSISTAYLQWSSLKASDTAMYYCARYGHGMYGGALDVWGQGTLVTVSS
VL: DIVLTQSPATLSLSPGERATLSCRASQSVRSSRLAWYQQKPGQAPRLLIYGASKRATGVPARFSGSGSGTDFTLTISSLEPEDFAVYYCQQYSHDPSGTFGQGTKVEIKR
modifications: DM4 maytansinoid conjugated via SPDB (printed SPDP in Table 2) linker; DM4/Ab 3.6; attachment residues not stated
B3: MF-T-SPDP-DM4 (antibody)
VH: QVELVQSGAEVKKPGESLKISCKGSGYSFTSYWIGWVRQAPGKGLEWMGIIDPGDSRTRYSPSFQGQVTISADKSISTAYLQWSSLKASDTAMYYCARGQLYGGTYMDGWGQGTLVTVSS
VL: DIALTQPASVSGSPGQSITISCTGTSSDIGGYNSVSWYQQHPGKAPKLMIYGVNNRPSGVSNRFSGSKSGNTASLTISGLQAEDEADYYCSSYDIESATPVFGGGTKLTVLGQDIVLTQPPSVSGAPGQRVTISCSGSSSNIGSNYVSWYQQLPGTAPKLLIYNDNQRPSGVPDRFSGSKSGTSASLAITGLQSEDEADYYCSTYDRRTFSVFGGGTKLTVLGQ
modifications: DM4 maytansinoid conjugated via SPDB (printed SPDP in Table 2) linker; DM4/Ab 3.6; attachment residues not stated
B4: MF-226-SPDP-DM4 (antibody, V domains shown)
VH: QVELVQSGAEVKKPGASVKVSCKASGYTFTGNYINWVRQAPGQGLEWMGIINPHGGDTKYAQKFQGRVTMTRDTSISTAYMELSSLRSEDTAVYYCARWHHGTWIFDYWGQGTLVTVSS
VL: DIVLTQPPSVSGAPGQRVTISCSGSSSNIGSNYVSWYQQLPGTAPKLLIYNDNQRPSGVPDRFSGSKSGTSASLAITGLQSEDEADYYCSTYDRRTFSVFGGGTKLTVLG
modifications: DM4 maytansinoid conjugated via SPDB (printed SPDP in Table 2) linker; DM4/Ab 3.3; attachment residues not stated
B5: MF-J Fab (Fab, V domains shown)
VH: QVELVQSGAEVKKPGESLKISCKGSGYSFTNYWIGWVRQMPGKGLEWMGVIMPSDSYTRYSPSFQGQVTISADKSISTAYLQWSSLKASDTAMYYCARYGHGMYGGALDVWGQGTLVTVSS
VL: DIVLTQSPATLSLSPGERATLSCRASQSVRSSRLAWYQQKPGQAPRLLIYGASKRATGVPARFSGSGSGTDFTLTISSLEPEDFATYYCQQYYDFPPTFGQGTKVEIKR
notes: Tested as Fab ('KD of Fab'); the Fab constant domains are not
B6: MOR 06640 Fab (Fab, V domains shown)
VH: QVQLVQSGAEVKKPGESLKISCKGSGYSFTNYWIGWVRQMPGKGLEWMGVIMPSDSYTRYSPSFQGQVTISADKSISTAYLQWSSLKASDTAMYYCARYGHGMYGGALDVWGQGTLVTVSS
VL: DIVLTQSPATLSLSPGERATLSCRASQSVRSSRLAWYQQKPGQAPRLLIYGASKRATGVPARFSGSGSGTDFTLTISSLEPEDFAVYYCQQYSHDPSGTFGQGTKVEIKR
notes: Tested as Fab ('KD of Fab'); the Fab constant domains are not; also called MOR6640
B7: MF-T Fab (Fab, V domains shown)
VH: QVELVQSGAEVKKPGESLKISCKGSGYSFTSYWIGWVRQAPGKGLEWMGIIDPGDSRTRYSPSFQGQVTISADKSISTAYLQWSSLKASDTAMYYCARGQLYGGTYMDGWGQGTLVTVSS
VL: DIALTQPASVSGSPGQSITISCTGTSSDIGGYNSVSWYQQHPGKAPKLMIYGVNNRPSGVSNRFSGSKSGNTASLTISGLQAEDEADYYCSSYDIESATPVFGGGTKLTVLG
notes: as for B5
B8: MF-226 Fab (Fab, V domains shown)
VH: QVELVQSGAEVKKPGASVKVSCKASGYTFTGNYINWVRQAPGQGLEWMGIINPHGGDTKYAQKFQGRVTMTRDTSISTAYMELSSLRSEDTAVYYCARWHHGTWIFDYWGQGTLVTVSS
VL: DIVLTQPPSVSGAPGQRVTISCSGSSSNIGSNYVSWYQQLPGTAPKLLIYNDNQRPSGVPDRFSGSKSGTSASLAITGLQSEDEADYYCSTYDRRTFSVFGGGTKLTVLG
notes: as for B5

The term Kd denotes a measure of binding affinity in units of concentration. Higher therefore signals weaker binding.

Sequence of mesothelin expressed on cells (transfected MiaPaCa-2, HT29 C2, CHO A9; endogenous HelaMatu, OVCAR-3) (Q13421 other isoform, or with tags, fused parts or gaps limits assumed): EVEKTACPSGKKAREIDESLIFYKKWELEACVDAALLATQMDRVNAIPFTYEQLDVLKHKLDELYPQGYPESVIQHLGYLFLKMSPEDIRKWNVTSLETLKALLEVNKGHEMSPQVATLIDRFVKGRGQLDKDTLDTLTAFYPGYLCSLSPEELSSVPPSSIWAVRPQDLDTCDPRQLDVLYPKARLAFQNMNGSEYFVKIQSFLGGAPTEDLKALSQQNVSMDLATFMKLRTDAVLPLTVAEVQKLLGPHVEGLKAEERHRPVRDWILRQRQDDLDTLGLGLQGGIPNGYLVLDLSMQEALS

The first assay has as its target mesothelin expressed on cells (transfected MiaPaCa-2, HT29 C2, CHO A9; endogenous HelaMatu, OVCAR-3) (Homo sapiens (Human), UniProt Q13421 296-598). Nature of the assay: cell-based or functional assay.
Regarding B1, the “IC50 (nM), cell viability (WST-1), CHO A9* (Mesothelin+)” value stood at 0.35 nM; the “IC50 (nM), cell viability (WST-1), HT29 C2 (Mesothelin+)” value was 0.3 nM; the “IC50 (nM), cell viability (WST-1), HelaMatu” value was found to be 0.2 nM; the “IC50 (nM), cell viability (WST-1), MiaPaCa-2 (Mesothelin+)” value worked out at 1.4 nM. The “IC50 (nM), cell viability (WST-1), OVCAR-3” value was determined as 0.9 nM.
For B2, in that order: 1.2 nM, 0.21 nM, 0.6 nM, 0.36 nM and 1.07 nM.
For B3, in that order: 1 nM, 1.5 nM, 0.45 nM, 1.3 nM and 2.8 nM.
B4: the “IC50 (nM), cell viability (WST-1), CHO A9* (Mesothelin+)” value was 1.3 nM; the “IC50 (nM), cell viability (WST-1), HT29 C2 (Mesothelin+)” value is 8 nM; the “IC50 (nM), cell viability (WST-1), HelaMatu” value came out at 0.9 nM; the “IC50 (nM), cell viability (WST-1), MiaPaCa-2 (Mesothelin+)” value is 21 nM. Moreover, the “IC50 (nM), cell viability (WST-1), OVCAR-3” value was found to be 14.8 nM.

The next assay deals with T1, mesothelin (40 kDa, C-terminal domain of the mesothelin precursor polypeptide) (Homo sapiens (Human), UniProt Q13421 296-598).
T1 construct: Antigen of the Fab KD values
T1 sequence (Q13421 other isoform, or with tags, fused parts or gaps limits assumed): as above
Nature of the assay: KD of Fab; method not stated.
B5: the affinity, expressed as Kd, was 9.2 nM.
Same read-out and setting: then B6, with 0.19 nM.
Still for that read-out and setting: then B7, with 16.3 nM; and B8, with 58.3 nM.
